Results published in PMC12215968.

Biological target: T1, nucleoside-disphosphate kinase B (NME2) (human (endogenous in HEK293)), P22392
T1 chain: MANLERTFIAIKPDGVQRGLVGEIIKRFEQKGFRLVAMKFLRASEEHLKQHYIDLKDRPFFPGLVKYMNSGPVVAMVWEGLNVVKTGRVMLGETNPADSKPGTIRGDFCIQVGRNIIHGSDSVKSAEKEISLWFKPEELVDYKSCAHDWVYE
Test: cross-linking; in vivo: intact 293 HBTH-CSN2 cells, 1 mM TSTO in PBS pH 7.4, 1 h, room temperature; SEC-HpHt separation of peptides, LC-MSn
Conditions: remark: other sources report otherwise

stoichiometry N: 3
B1: nucleoside-disphosphate kinase B (NME2), P22392 1-152 (natural protein)
chain: T1 chain
